Experimental data from patent publication US20190008955A1 (SORRENTO THERAPEUTICS, published 2019).

Experiments:
[1] = target: T1, human CXCR3 (human, UniProt P49682 1-368); experiment: flow cytometry, antibody titration on CHO-CXCR3 cells
T1 construct: whole, on cells; also called hu-CXCR3; C-X-C chemokine receptor 3
T1 sequence (looked up): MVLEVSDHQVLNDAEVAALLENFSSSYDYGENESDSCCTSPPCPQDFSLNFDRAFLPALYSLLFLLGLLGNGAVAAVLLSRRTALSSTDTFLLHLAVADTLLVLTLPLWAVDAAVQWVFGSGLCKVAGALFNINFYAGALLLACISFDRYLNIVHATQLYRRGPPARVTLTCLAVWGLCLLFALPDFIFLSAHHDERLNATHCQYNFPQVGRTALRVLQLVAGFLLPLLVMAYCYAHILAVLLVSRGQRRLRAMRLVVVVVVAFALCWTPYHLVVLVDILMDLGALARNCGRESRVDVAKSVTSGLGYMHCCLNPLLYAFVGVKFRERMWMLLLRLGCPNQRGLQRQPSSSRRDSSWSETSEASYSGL
Protocol: In this example, CHO-CXCR3 cells were lifted from culture flasks using non-enzymatic Cell Dissociation Buffer-PBS based (Life Technologies #13151-014). Cells were resuspended in FACS Buffer (2% Fetal Bovine Serum in PBS) at 1×10⁶ cells/ml and 50 μl (0.5×10⁵ cells) were aliquoted into the wells of a 96-well plate. Plated cells were spun down and the supernatant discarded. Cells were resuspended in 30 μl FACS Buffer containing serially diluted concentrations of antibody in triplicate. Plates were incubated for 1 hr at 4° C. and then washed twice with FACS Buffer. Cells were resuspended in 50 μl goat anti-human IgG (γ-chain specific)-PE conjugated secondary antibody (Southern Biotech #2040-09) diluted 1:500 in FACS Buffer. Cells were further incubated for 30 min at 4° C. and then washed 1× with FACS Buffer. The cells were resuspended in a final volume of 30 μl FACS Buffer and analyzed using the Intellicyt Flow Cytometer. Median fluorescence in the FL-2H channel was determined using FlowJo software and EC₅₀ value was determined by plotting the data in GraphPad Prism and analyzing using a variable slope non-linear regression.

[2] = target: T1, human CXCR3; experiment: cell-based or functional assay
[3] = target: T1, human CXCR3; experiment: cell-based or functional assay; remark: listed apart in the source
[4] = target: T2, murine CXCR3 (murine, UniProt O88410 1-367); experiment: flow cytometry, antibody titration on murine B16-F10 cells
T2 construct: whole, on cells; target is the endogenous receptor on B16-F10 cells; also called mur CXCR3
T2 sequence (looked up): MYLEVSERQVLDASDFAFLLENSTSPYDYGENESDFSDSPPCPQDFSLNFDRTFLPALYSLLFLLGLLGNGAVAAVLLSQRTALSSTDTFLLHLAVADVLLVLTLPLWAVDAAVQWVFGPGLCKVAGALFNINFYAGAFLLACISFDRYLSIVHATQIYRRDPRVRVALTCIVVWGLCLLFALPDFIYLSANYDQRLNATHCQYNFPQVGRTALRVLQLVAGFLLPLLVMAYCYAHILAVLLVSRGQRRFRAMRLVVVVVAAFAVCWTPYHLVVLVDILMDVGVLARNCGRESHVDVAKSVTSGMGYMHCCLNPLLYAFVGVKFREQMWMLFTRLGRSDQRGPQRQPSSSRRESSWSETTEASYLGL
Protocol: In this example, murine B16-F10 cells (ATCC, #CRL-6475) were lifted from culture flasks using non-enzymatic Cell Dissociation Buffer-PBS based (Life Technologies #13151-014). Cells were harvested, washed and resuspended in FACS Buffer (2% Fetal Bovine Serum in PBS) at 1×10⁶ cells/ml and 50 μl (0.5×10⁵ cells) were aliquoted into the wells of a 96-well plate. Plated cells were spun down and the supernatant discarded. Cells were resuspended in 30 μl FACS Buffer serially diluted concentrations of antibody in triplicate. Plates were incubated for 1 hr at 4° C. and then washed 2× with FACS Buffer. Cells were resuspended in 50 μl goat anti-human IgG (γ-chain specific)-PE conjugated secondary antibody (Southern Biotech #2040-09) diluted 1:500 in FACS Buffer. Cells were further incubated for 30 min at 4° C. and then washed 1× with FACS Buffer. The cells were resuspended in a final volume of 30 μl FACS Buffer and analyzed using the Intellicyt Flow Cytometer. Median fluorescence in the FL-2H channel was determined using FlowJo software and the EC₅₀ value was determined by plotting the data in GraphPad Prism and analyzing using a variable slope non-linear regression.

B1: 3C11 (antibody, V domains shown)
VH: EVQLVESGGGLVQPGGSLRLSCSASGFTFSSYAMHWVRQAPGKGLEYVSAISSNGGSTYYADSVKGRFTISRDNSKNTLYLQMSSLRAEDTAVYYCVKSIAAAGTQYYYYYMDVWGKGTTVTVSS
VL: DIQLTQSPSSLSASVGDRVTITCRASQGIGTYLAWFQQKPGKVPKPLIYAASTLQSGVPSRFSGSGSGADFTLTISSLQPEDVATYYCQKYNSVPQTFGQGTKVEIK
notes: Fully human IgG class
For B1, which EC50 [1] is on record?
The EC50 was 0.6 nM.

B2: 3A11 (antibody, V domains shown)
VH: QVQLVQSGGGLVKPGGSLRLSCAASGFTFTSSGMNWVRQAPGKGLEWVAYIFPNGKTLYPESVKGRFIITRDNAEKSLFLEMNNLRAEDMGVYYCAIDLNWGSGYWGQGTLVTVSS
VL: SYVLTQPPSVSKGLRQTATLTCTGNINNVGNVGATWLQQHQGHPPKLLSDRNNNRPSGISERFSASRSGNAASLTITGLQPEDEADYYCSAWDTSLGAWVFGGGTKLTVL
notes: Fully human IgG class
Which EC50 [1] does the source give for B2 here?
Its EC50 is 1.2 nM.

B3: 2A3 (antibody, V domains shown)
VH: QVQLVQSGAEVKKPGSSVKVACKASGGTFSHSAISWVRQAPGQGLEWIGRTIPTLEMASYAQKFQGRVTISADKSTRTGYMELRDLRSEDTAVYYCSTQTPSYTDHWGQGTLVTVSS
VL: DIVMTQTPLSLPVTLGQPASISCRSSQSLVHSDGNTYLNWFQQRPGQSPRRLIYKVSNRDSGVPDRFSGSGSGTDFTLKISRVEAEDVGVYYCMQGTHWPLTFGGGTKVEIK
notes: Fully human IgG class
For B3, which EC50 [1] is on record?
The EC50 was 11 nM.

B4: 3A3 (antibody, V domains shown)
VH: QVQLVQSGAEVKKPGSSVKVSCKASGGTFNRYAFSWVRQAPGQGPELMGRIMPMFDIASYAQKFQGRLTITADKSTSTAYMELSSLRSDDTAVYYCTQVSGDSDYWGPGTLVTVSS
VL: DIVMTQTPLSLPVTLGQPASISCRSSQSLVHNDGNTYLNWFHQRPGQSPRRLIYKVSNRDFGVPDRFSGSGSGTDFTLRISRVEAEDVGVYYCMQGSHWPLTFGGGTKVEIK
notes: Fully human IgG class
B4 was tested. Which EC50 [1] did it give?
Its EC50 is 0.5 nM.

B5: F7 (antibody, V domains shown)
VH: QVQLVQSGAEVKKPGSSVKVACKASGGTFSHSAISWVRQAPGQGLEWIGRTIPTLEMASYAQKFQGRVTISADKSTRTGYMELRDLRSEDTAVYYCSTQTPSYTDHWGQGTLVTVSS
VL: DIVMTQTPLSLPVTLGQPASISCRSNQSLVHSDGNTYLYWFQQRPGQSPRRLIYKVSNRDSGVPDRFSGSGSGTDFTLKINRVEAEDVGVYYCMQGTHWPNTFGQGTKLEIK
notes: Fully human IgG class; 31
For B5, which EC50 [1] is on record?
The EC50 was 5 nM.

B6: 32B12 (antibody, V domains shown)
VH: EVQLVQSGGGLVKSGRSLRLSCTVSGFTFGNSAMSWFRQAPGKGLEWVSSISSSSSYIYYADSVKGRFTISRDNAKNSLYLQMNSLRAEDTAVYYCARDLSGRGYSYLNYWGQGTLVTVSS
VL: SYELTQPPSVSAAPGQKVTISCSGSSSNIGNSYVSWFQQFPGTAPKLVIYENNKRPSGIPDRFSGSKSGTSATLGITGLQTGDEADYYCGTWDSSLSGRVFGGGTKLTVL
notes: Described as a fully human antibody of an IgG class and detected with anti-human IgG (gamma-chain specific); also called anti-CXCR3 antibody 32B12; clone 32B12
What does the source list for B6?
EC50 [1]: 1 nM; IC50 [nM] in a calcium flux assay using CHO-CXCR3 cells, ligand CXCL9 (200 nM) [2]: 37 nM; IC50 [nM] in a calcium flux assay using CHO-CXCR3 cells, ligand CXCL10 (164 nM) [2]: 7 nM; IC50 [nM] in a calcium flux assay using CHO-CXCR3 cells, ligand CXCL11 (60 nM) [2]: 16 nM; IC50 [nM] in a chemotaxis assay using activated T cells, ligand CXCL9 (30 nM) [3]: 0.6 nM; IC50 [nM] in a chemotaxis assay using activated T cells, ligand CXCL10 (12.5 nM) [3]: 0.2 nM; IC50 [nM] in a chemotaxis assay using activated T cells, ligand CXCL11 (0.3 nM) [3]: 0.3 nM; EC50 [4]: 25 nM

B7: 32D12 (antibody, V domains shown)
VH: EVQLLESGGGLVQPGGSQRLSCAASGFTFSSYPMTWVRQAPGKGLEWVSAISDGGSGTYYADSVKGRFTISRDNSKNTLYLQMNSLRAEDTAIYYCARYKMGGSYRGLDDWGQGTLVTVSS
VL: LPVLTQPASVSGSPGQPITISCTGTSGNIGSYNYVSWYQQHPGKAPRLLIYDVSLRPSGISSHFSGSKSGNTASLTISGLQAEDEAEYFCLSWTSDKTYVFGSGTKLTVL
notes: Fully human IgG class
B7 was tested. Which EC50 [1] did it give?
Its EC50 is 4 nM.

And the “IC50 [nM] in a calcium flux assay using CHO-CXCR3 cells, ligand CXCL11 (60 nM)” value [2]?
Its value is 19 nM.

And the “IC50 [nM] in a chemotaxis assay using activated T cells, ligand CXCL9 (30 nM)” value [3]?
Its value is 2.5 nM.

What about the “IC50 [nM] in a chemotaxis assay using activated T cells, ligand CXCL10 (12.5 nM)” value [3] of the same binder?
The value was 0.03 nM.

What about the “IC50 [nM] in a chemotaxis assay using activated T cells, ligand CXCL11 (0.3 nM)” value [3] of the same binder?
The value was 3.4 nM.
